± gives the uncertainty stated by the source.
Assay: protein stability index of a GFP-peptide fusion (yeast GPS) (PSI 1-4); higher = more stable; sorted into four equal gates, so the index is relative within each strain
How it was run: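 Yeast carrying a pooled library were grown to mid-log phase in leucine-free medium. Each library plasmid expresses Cherry and has a tiled 17-residue yeast protein peptide fused downstream of GFP. Cells were sorted into four equal gates by GFP/Cherry ratio, and plasmids from each gate were PCR-amplified, Illumina-sequenced and assigned to strains by barcode. Summing, across gates, the read frequency times the gate number gave each peptide's protein stability index.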

## ANEDEEEQLDALECRLA [CSN12]
pdr5∆
  protein stability index: 2.65 ± 0.28

## AVDAKQLAQIRQFLKAN [YML103C/NUP188]
doa10∆
  protein stability index: 2.58 ± 0.12
pdr5∆
  protein stability index: 3.06 ± 0.079
san1∆
  protein stability index: 2.96 ± 0.093
ubr1∆
  protein stability index: 2.78 ± 0.067

## FRRDFLLREYDILSQIL [YJL039C/NUP192]
doa10∆
  protein stability index: 1.81 ± 0.12
pdr5∆
  protein stability index: 2.32 ± 0.1
san1∆
  protein stability index: 2.08 ± 0.11
ubr1∆
  protein stability index: 2.27 ± 0.06

## SMGSILLSFVLGVVFGR [YML031W/NDC1]
doa10∆
  protein stability index: 2.39 ± 0.046
pdr5∆
  protein stability index: 2.13 ± 0.043
san1∆
  protein stability index: 2.56 ± 0.055
ubr1∆
  protein stability index: 2.64 ± 0.059

## PLPAVFSAPIRPDIVHT [RPL4A]
doa10∆
  protein stability index: 1.96 ± 0.04
pdr5∆
  protein stability index: 2.35 ± 0.04
san1∆
  protein stability index: 2.08 ± 0.06
ubr1∆
  protein stability index: 2.13 ± 0.041

## ANLLFKKEKLKQENSTL [RPC82]
doa10∆
  protein stability index: 2.15 ± 0.077
pdr5∆
  protein stability index: 2.24 ± 0.067
san1∆
  protein stability index: 1.92 ± 0.12
ubr1∆
  protein stability index: 1.93 ± 0.06

## TEYGRKYNVNISALTQT [PRP8]
doa10∆
  protein stability index: 2.07 ± 0.14
pdr5∆
  protein stability index: 2.53 ± 0.093
san1∆
  protein stability index: 2.94 ± 0.14
ubr1∆
  protein stability index: 2.5 ± 0.047

## IGLRQFQQIQYENKQLY [POP1]
doa10∆
  protein stability index: 2.84 ± 0.085
pdr5∆
  protein stability index: 2.81 ± 0.061
san1∆
  protein stability index: 2.92 ± 0.048
ubr1∆
  protein stability index: 2.79 ± 0.047

## ELAQYMKTNVHTQANEP [RGR1]
doa10∆
  protein stability index: 2.81 ± 0.081
pdr5∆
  protein stability index: 2.99 ± 0.086
san1∆
  protein stability index: 2.75 ± 0.064
ubr1∆
  protein stability index: 2.75 ± 0.068

## QQIQEQVLKCKESWDPN [YGR119C/NUP57]
doa10∆
  protein stability index: 3.3 ± 0.17
san1∆
  protein stability index: 3.33 ± 0.25
ubr1∆
  protein stability index: 3.52 ± 0.22

## DFLRKATAFNKTRGPFH [RPL16A]
doa10∆
  protein stability index: 2.19 ± 0.16
pdr5∆
  protein stability index: 2.96 ± 0.2
san1∆
  protein stability index: 3.04 ± 0.086
ubr1∆
  protein stability index: 3.03 ± 0.12

## APMRLATAALEIILKLC [YJL039C/NUP192]
doa10∆
  protein stability index: 1.6 ± 0.064
pdr5∆
  protein stability index: 2.06 ± 0.043
san1∆
  protein stability index: 1.31 ± 0.087
ubr1∆
  protein stability index: 2.4 ± 0.057

## TYVLNTWTNSKIFIKDP [YML103C/NUP188]
doa10∆
  protein stability index: 2 ± 0.056
pdr5∆
  protein stability index: 2.15 ± 0.046
san1∆
  protein stability index: 2.3 ± 0.058
ubr1∆
  protein stability index: 2.23 ± 0.034

## KKKTKKELELERKERED [SWI1]
doa10∆
  protein stability index: 3.62 ± 0.12
pdr5∆
  protein stability index: 3.37 ± 0.073
san1∆
  protein stability index: 3.51 ± 0.051
ubr1∆
  protein stability index: 3.31 ± 0.043

## STKFDYPPMPFDGFLFG [FAS1]
doa10∆
  protein stability index: 2.56 ± 0.046
pdr5∆
  protein stability index: 2.63 ± 0.051
san1∆
  protein stability index: 2.68 ± 0.063
ubr1∆
  protein stability index: 2.68 ± 0.037

## VDAGIALNSMCASIPIA [RRP46]
doa10∆
  protein stability index: 1.65 ± 0.12
pdr5∆
  protein stability index: 1.63 ± 0.12
san1∆
  protein stability index: 1.71 ± 0.15
ubr1∆
  protein stability index: 1.66 ± 0.16

## LLYELTAFKATVFFLIR [YJL039C/NUP192]
doa10∆
  protein stability index: 2.32 ± 0.071
pdr5∆
  protein stability index: 2.36 ± 0.09
san1∆
  protein stability index: 1.82 ± 0.077
ubr1∆
  protein stability index: 2.43 ± 0.063

## LNIRIQTYGETTAVDAL [RPC19]
doa10∆
  protein stability index: 2.02 ± 0.12
pdr5∆
  protein stability index: 1.09 ± 0.11
san1∆
  protein stability index: 1.19 ± 0.28
ubr1∆
  protein stability index: 1.15 ± 0.077

## RTQAGDIVSIDIEEPQL [MTW1]
doa10∆
  protein stability index: 2.99 ± 0.12
pdr5∆
  protein stability index: 3.26 ± 0.1
san1∆
  protein stability index: 3.36 ± 0.061
ubr1∆
  protein stability index: 3.24 ± 0.081

## DQCKKQRRCLHCGALNG [RPO31]
doa10∆
  protein stability index: 2.6 ± 0.14
pdr5∆
  protein stability index: 2.71 ± 0.18
san1∆
  protein stability index: 2.4 ± 0.11
ubr1∆
  protein stability index: 2.57 ± 0.11

## KRNGDEVYTLVDSQGLP [ARP7]
doa10∆
  protein stability index: 3.35 ± 0.17
pdr5∆
  protein stability index: 3.34 ± 0.11
san1∆
  protein stability index: 2.98 ± 0.14
ubr1∆
  protein stability index: 3.21 ± 0.097

## PQMFLNQQAQARQQVAQ [GAL11]
doa10∆
  protein stability index: 2.66 ± 0.15
pdr5∆
  protein stability index: 2.46 ± 0.13
san1∆
  protein stability index: 1.9 ± 0.27
ubr1∆
  protein stability index: 1.7 ± 0.091

## EEYKKSLYAYCHSKLRG [GRR1]
doa10∆
  protein stability index: 2.29 ± 0.074
pdr5∆
  protein stability index: 2.31 ± 0.07
san1∆
  protein stability index: 2.42 ± 0.09
ubr1∆
  protein stability index: 2.44 ± 0.075

## PSEFHCLQDALDAIDDF [SSN2]
doa10∆
  protein stability index: 3.14 ± 0.1
pdr5∆
  protein stability index: 3.16 ± 0.067
san1∆
  protein stability index: 3.12 ± 0.05
ubr1∆
  protein stability index: 3.09 ± 0.097

## NPLADAEEALEPSYIFE [PRE4]
doa10∆
  protein stability index: 3.09 ± 0.072
pdr5∆
  protein stability index: 2.83 ± 0.077
san1∆
  protein stability index: 3.08 ± 0.055
ubr1∆
  protein stability index: 3.12 ± 0.06

## ELSDSDRQIINEKMQLL [SIR4]
doa10∆
  protein stability index: 2.76 ± 0.049
pdr5∆
  protein stability index: 2.8 ± 0.055
san1∆
  protein stability index: 2.56 ± 0.06
ubr1∆
  protein stability index: 2.32 ± 0.047

## EMAEKIDFTLLNRLLRL [PRP8]
doa10∆
  protein stability index: 2.72 ± 0.058
pdr5∆
  protein stability index: 2.93 ± 0.058
san1∆
  protein stability index: 2.57 ± 0.054
ubr1∆
  protein stability index: 2.37 ± 0.049

## KPPISDSVFSFGPKKEN [YLR335W/NUP2]
doa10∆
  protein stability index: 2.82 ± 0.065
pdr5∆
  protein stability index: 2.81 ± 0.057
san1∆
  protein stability index: 2.75 ± 0.046
ubr1∆
  protein stability index: 2.94 ± 0.039

## TIRVVTENKIFVEVERA [RPN5]
doa10∆
  protein stability index: 1.51 ± 0.18
pdr5∆
  protein stability index: 1.94 ± 0.14
ubr1∆
  protein stability index: 2.45 ± 0.27

## DYITEAVFKIVLQPLLP [SNU114]
doa10∆
  protein stability index: 1.44 ± 0.043
pdr5∆
  protein stability index: 1.31 ± 0.066
san1∆
  protein stability index: 1.38 ± 0.089
ubr1∆
  protein stability index: 1.51 ± 0.055

## SGRNIHLAVVCVDDNSK [SSN2]
doa10∆
  protein stability index: 2.14 ± 0.087
pdr5∆
  protein stability index: 1.61 ± 0.045
san1∆
  protein stability index: 1.48 ± 0.085
ubr1∆
  protein stability index: 2.96 ± 0.045

## DWIRFVSTKTNEYRLAF [RPL22A]
doa10∆
  protein stability index: 2.03 ± 0.039
pdr5∆
  protein stability index: 2.17 ± 0.045
san1∆
  protein stability index: 2.75 ± 0.064
ubr1∆
  protein stability index: 2.62 ± 0.042

## NGTVNNNSALSNVNSDI [RPT3]
doa10∆
  protein stability index: 2.91 ± 0.1
pdr5∆
  protein stability index: 2.77 ± 0.067
san1∆
  protein stability index: 1.81 ± 0.087
ubr1∆
  protein stability index: 2.15 ± 0.051

## TVVISQKKVPDKLLDPT [SCL1]
doa10∆
  protein stability index: 2.85 ± 0.1
pdr5∆
  protein stability index: 2.31 ± 0.085
san1∆
  protein stability index: 3.23 ± 0.064
ubr1∆
  protein stability index: 2.86 ± 0.068

## LAPTQLSAEYLVILKPD [SIN4]
doa10∆
  protein stability index: 2.31 ± 0.11
pdr5∆
  protein stability index: 2.74 ± 0.13
san1∆
  protein stability index: 2.38 ± 0.12
ubr1∆
  protein stability index: 2.38 ± 0.074

## HPGYDCWLSNIDIQTQD [RRI1]
doa10∆
  protein stability index: 2.72 ± 0.099
pdr5∆
  protein stability index: 3.14 ± 0.091
san1∆
  protein stability index: 3.08 ± 0.062
ubr1∆
  protein stability index: 3.16 ± 0.075

## TLNPKTGHLFLKIIHTS [PRP8]
doa10∆
  protein stability index: 2.44 ± 0.047
pdr5∆
  protein stability index: 1.91 ± 0.048
san1∆
  protein stability index: 1.77 ± 0.076
ubr1∆
  protein stability index: 1.84 ± 0.048

## QLLQRLNDMNTEISGLK [SMC3]
doa10∆
  protein stability index: 3.28 ± 0.081
pdr5∆
  protein stability index: 3.38 ± 0.1
san1∆
  protein stability index: 3.22 ± 0.06
ubr1∆
  protein stability index: 3.3 ± 0.058

## NKGWKLQSLNESKDLLR [SRB4]
doa10∆
  protein stability index: 2.81 ± 0.13
pdr5∆
  protein stability index: 2.57 ± 0.1
san1∆
  protein stability index: 2.32 ± 0.11
ubr1∆
  protein stability index: 2.93 ± 0.15

## VDSNLPDDEKFTDENTI [RPC40]
doa10∆
  protein stability index: 2.35 ± 0.15
pdr5∆
  protein stability index: 3.46 ± 0.21
san1∆
  protein stability index: 2.02 ± 0.19

## EVFQLRIFVKEILEKCA [GAL11]
doa10∆
  protein stability index: 2.29 ± 0.12
pdr5∆
  protein stability index: 2.11 ± 0.12
san1∆
  protein stability index: 2.19 ± 0.077
ubr1∆
  protein stability index: 2.12 ± 0.19

## VSMVKRAIDSLIQKGYL [CDC53]
doa10∆
  protein stability index: 1.74 ± 0.053
pdr5∆
  protein stability index: 1.82 ± 0.058
san1∆
  protein stability index: 2.03 ± 0.11
ubr1∆
  protein stability index: 1.74 ± 0.052

## QYATVSKTHKTVSRAYG [RPL34A]
doa10∆
  protein stability index: 2.05 ± 0.069
pdr5∆
  protein stability index: 2.31 ± 0.055
san1∆
  protein stability index: 2.41 ± 0.065
ubr1∆
  protein stability index: 2.34 ± 0.06

## LNSTLESLYDLIEFQPS [MED6]
doa10∆
  protein stability index: 2.8 ± 0.049
pdr5∆
  protein stability index: 2.85 ± 0.046
san1∆
  protein stability index: 2.88 ± 0.039
ubr1∆
  protein stability index: 2.76 ± 0.048

## SFLSKHALYLAPSGIRM [SSN2]
doa10∆
  protein stability index: 2.12 ± 0.067
pdr5∆
  protein stability index: 1.56 ± 0.059
san1∆
  protein stability index: 1.46 ± 0.12
ubr1∆
  protein stability index: 2.19 ± 0.086

## DGLLEYLEDIIGTANYK [SMC4]
doa10∆
  protein stability index: 2.38 ± 0.072
pdr5∆
  protein stability index: 2.53 ± 0.055
san1∆
  protein stability index: 2.6 ± 0.078
ubr1∆
  protein stability index: 2.36 ± 0.054

## TNVSKQNDFLFSVGESL [ECM29]
doa10∆
  protein stability index: 2.56 ± 0.055
pdr5∆
  protein stability index: 2.92 ± 0.071
san1∆
  protein stability index: 2.94 ± 0.1
ubr1∆
  protein stability index: 2.46 ± 0.053

## ELNEEKKRLMDIDDELN [SMC2]
doa10∆
  protein stability index: 3.23 ± 0.095
pdr5∆
  protein stability index: 3.42 ± 0.14
san1∆
  protein stability index: 2.69 ± 0.15
ubr1∆
  protein stability index: 3.51 ± 0.069

## FGKLAFPTRLGQGYRKV [YJL039C/NUP192]
doa10∆
  protein stability index: 2.98 ± 0.18
pdr5∆
  protein stability index: 1.7 ± 0.1
san1∆
  protein stability index: 1.54 ± 0.18
ubr1∆
  protein stability index: 1.62 ± 0.077

## FNRLKKQAHEKLDASKK [YIL149C/MLP2]
doa10∆
  protein stability index: 2.95 ± 0.086
pdr5∆
  protein stability index: 3.08 ± 0.099
san1∆
  protein stability index: 3.41 ± 0.069
ubr1∆
  protein stability index: 3.14 ± 0.082

## LYSYLIKENFFERIMIL [YJL039C/NUP192]
doa10∆
  protein stability index: 1.48 ± 0.063
pdr5∆
  protein stability index: 1.42 ± 0.073
san1∆
  protein stability index: 1.49 ± 0.2
ubr1∆
  protein stability index: 1.26 ± 0.11

## CFMHLLVQLFLWDSKEL [RPN3]
doa10∆
  protein stability index: 1.23 ± 0.078
pdr5∆
  protein stability index: 1.6 ± 0.064
san1∆
  protein stability index: 1.61 ± 0.15
ubr1∆
  protein stability index: 1.54 ± 0.15

From the supplement of paper PMC9732359
